Earlier results in PMC5158201.

Molecular target: decoy IL-1 receptor (IL-1RII) (Homo sapiens) (UniProt P27930)
Sequence of UniProt P27930 (P27930 14-398): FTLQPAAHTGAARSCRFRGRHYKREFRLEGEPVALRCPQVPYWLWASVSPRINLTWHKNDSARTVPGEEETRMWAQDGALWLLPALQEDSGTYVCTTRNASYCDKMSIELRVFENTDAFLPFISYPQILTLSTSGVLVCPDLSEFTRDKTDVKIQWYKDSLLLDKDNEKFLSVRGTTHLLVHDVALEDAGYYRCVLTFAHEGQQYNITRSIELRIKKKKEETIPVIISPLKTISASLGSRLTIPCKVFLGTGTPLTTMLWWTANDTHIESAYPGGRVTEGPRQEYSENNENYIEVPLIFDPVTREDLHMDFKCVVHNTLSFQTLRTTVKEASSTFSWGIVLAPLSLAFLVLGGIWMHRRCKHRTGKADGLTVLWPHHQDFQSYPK

- Kd: 0.03 nM
Substance: IL-1α (from UniProt P01583)
